From US20210188916A1 (INDUSTRY UNIVERSITY COOPERATION FOUNDATION HANYANG …, published 2021)

Experiments:
[1] = biological target: T1, ATP5C1 (endogenous, HCT116 human colon cancer cells) (human, UniProt P36542 26-298); experiment: interaction analysis by immunoblot in HCT116 xenograft tumor lysates of treated mice (FIG. 6A, bottom)
T1 construct: Endogenous protein in cell or tumor lysates
T1 sequence: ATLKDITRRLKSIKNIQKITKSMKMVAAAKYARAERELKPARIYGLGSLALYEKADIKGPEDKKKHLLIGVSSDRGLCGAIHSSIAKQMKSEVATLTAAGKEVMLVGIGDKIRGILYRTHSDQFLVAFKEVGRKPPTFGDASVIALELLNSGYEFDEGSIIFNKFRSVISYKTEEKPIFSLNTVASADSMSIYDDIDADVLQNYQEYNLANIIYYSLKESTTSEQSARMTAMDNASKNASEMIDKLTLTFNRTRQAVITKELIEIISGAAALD

[2] = biological target: T2, ATP5A1 (endogenous, HCT116 human colon cancer cells) (human, UniProt P25705 44-553); experiment: as above
T2 construct: Endogenous protein in cell or tumor lysates
T2 sequence (P25705 44-553 limits assumed): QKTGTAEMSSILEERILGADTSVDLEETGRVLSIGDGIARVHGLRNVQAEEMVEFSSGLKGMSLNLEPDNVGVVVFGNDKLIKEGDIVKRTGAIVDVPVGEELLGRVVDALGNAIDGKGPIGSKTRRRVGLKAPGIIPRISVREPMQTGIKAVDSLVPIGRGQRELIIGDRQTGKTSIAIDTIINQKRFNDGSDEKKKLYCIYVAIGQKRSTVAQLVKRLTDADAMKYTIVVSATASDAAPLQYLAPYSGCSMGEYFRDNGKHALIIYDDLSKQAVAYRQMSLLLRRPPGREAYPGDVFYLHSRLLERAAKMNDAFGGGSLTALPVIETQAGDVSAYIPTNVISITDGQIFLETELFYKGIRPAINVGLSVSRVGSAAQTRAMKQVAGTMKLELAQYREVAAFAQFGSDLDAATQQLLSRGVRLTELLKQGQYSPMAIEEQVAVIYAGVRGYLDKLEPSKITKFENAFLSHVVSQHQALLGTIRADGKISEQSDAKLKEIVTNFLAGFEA

B1: rATRAM-GRA8-M/AS (6x His-tagged ATRAM-conjugated multifunctional GRA8 peptide) (peptide)
chain: GLAGLAGLLGLEGLLGLPLGLLEGLWLGLELEGNGLAGLAGLLGLEGLLGLPLGLLEGLWLGLELEGNGGATATTTTTTRGGYRFTVQTTQN
notes: also called rATRAM-G8-M/AS; 6x His-rATRAM-GRA8-M/AS; not shown: N-terminal 6x His tag from the pRSFDuet-1 vector
- binding result [1]: binds
- binding result [2]: binds
